Patent US20250064956A1, “METHODS FOR TREATING MUSCLE INVASIVE UROTHELIAL CANCER OR MUSCLE INVASIVE BLADDER CANCER WITH ANTIBODY DRUG CONJUGATES (ADC) THAT BIND TO 191P4D12 PROTEINS” (AGENSYS, INC., priority 2022, published 2025)

Tests used:
[1] = tested on: patients receiving enfortumab vedotin; assay: Reports of severe cutaneous adverse reactions in patients receiving enfortumab vedotin; format: in vivo, human
From the text: These reactions occurred predominantly during the first cycle of treatment. AEs reported in these cases included Stevens-Johnson Syndrome (SJS) (5 cases), blister (3 cases), dermatitis bullous (3 cases), symmetrical drug-related intertriginous and flexural exanthema (SDRIFE; 2 cases), and 1 case each of dermatitis exfoliative, exfoliative rash, epidermal necrosis, oropharyngeal blistering, stomatitis, and toxic epidermal necrolysis (TEN).

[2] = tested on: urothelial carcinoma subjects; assay: Enfortumab vedotin monotherapy studies of urothelial carcinoma, SAEs of severe cutaneous adverse reactions; format: in vivo, human
[3] = tested on: patients with T2 T3bN0M0 MIBC; details: cited from earlier work
[4] = tested on: acute myeloid leukemia (AML) at relapse; details: administered alone; cited from earlier work
[5] = tested on: cisplatin-ineligible patients with muscle invasive bladder cancer (MIBC); assay: Phase 1b/2 study (Cohort H): neoadjuvant EV monotherapy followed by RC+PLND, antitumor activity (pCR, pDS, EFS); format: in vivo, human
Protocol: Treatment with enfortumab vedotin monotherapy is evaluated in patients with MIBC. This study enrolls approximately 20 patients with cT2-T4aN0M0 MIBC.
pCR is the primary endpoint and is defined as the absence of viable tumor (pT0N0) in examined tissue from RC+PLND. pCR is assessed by central pathology review after RC+PLND with curative intent. Post-RC restaging is performed via the same radiologic modalities at the first follow-up disease assessment scan (12 weeks after RC+PLND). During the first 2 years on study, follow-up is performed every 12 weeks (±14 days) from RC+PLND until disease progression/recurrence, patient death study closure, or withdrawal of consent, whichever occurs first. After 2 years on study, the frequency of visits including response assessments is reduced to every 24 weeks (±14 days). Tumor imaging should also be performed whenever disease progression is suspected.
Radiographic disease progression precluding a curative intent surgery noted prior to RC+PLND, failure to undergo RC+PLND for patients with residual muscle invasive disease and/or any radiographic disease present, gross residual disease left behind at time of RC+PLND, local or distant recurrence post-RC as assessed radiographically and/or confirmed with biopsy (local pathology review), or death from any cause are considered EFS events. Patients who are found to have EFS events but are still alive are to transition into long-term follow-up.
Tumor tissue samples collected from the patient's diagnostic TURBT within 90 days prior to the first dose of study treatment are sent for central pathology review. Tissue samples from RC+PLND will also be sent for central pathology review of pathologic response assessment. Tumor response is assessed after RC+PLND with curative intent by pathology review analysis. Pathologic staging information includes TNM classification, histology, lymph node counts, and surgical margins.
The pCRR is defined as the proportion of patients having pCR. pCR is defined as the absence of viable tumor (pT0N0) in examined tissue from RC+PLND.
pDSR is defined as the proportion of patients having pDS. pDS is defined as patients with <pT2 (includes pT0, pTis, pTa, pT1) and N0 in examined tissue from RC+PLND.
EFS is defined as the time from the start of study treatment to the first occurrence of any of the following events: • Radiographic disease progression precluding a curative intent surgery prior to RC+PLND • Failure to undergo RC+PLND for participants with residual muscle-invasive disease and/or any radiographic disease present • Gross residual disease left behind at time of RC+PLND (surgeon unable to complete curative intent surgery due to unresectable tumor or newly discovered metastatic disease) • Local or distant recurrence post-RC as assessed by CT or MRI and/or biopsy. If biopsy is not feasible due to participant safety, CT/MRI alone is sufficient • Death from any cause
Patients who refuse surgery but without a post-screening scan are censored at study day 1.
(§1) The methods for this Section 6.2 (Example 2) were as described in Section 6.1 (Example 1). […] Patients received 3 cycles of neoadjuvant EV (1.25 mg/kg) on Days 1 and 8 of every 3-week cycle prior to RC+PLND. The primary endpoint of the study was pathological complete response rate (pCRR; ypT0N0) by central review. Key secondary endpoints included pathological downstaging (pDS) rate (yp T0, Tis, Ta, T1,N0) and safety.

[6] = tested on: cisplatin-ineligible patients with muscle invasive bladder cancer (MIBC); assay: Phase 1b/2 study (Cohort H): safety, tolerability, exposure and disposition with neoadjuvant EV monotherapy and RC+PLND; format: in vivo, human
From the text: Safety assessments are based on the information collected through the safety surveillance process and will include the data from recorded AEs, including serious adverse events (SAEs), concomitant medications, physical examination findings, cardiac monitoring, and laboratory tests. Safety is monitored over the course of the study by the SMC.
The safety analysis evaluates the type, incidence, severity, seriousness, and relatedness of AEs, and the type, incidence, and severity of laboratory abnormalities. The incidence, duration, and resolution of AEs of special interest (AESIs) are summarized.
The assessment of safety during the course of this study will consist of the surveillance and recording of AEs including SAEs, recording of concomitant medication, and measurements of protocol-specified physical examination findings, cardiac monitoring, and laboratory tests.
AE severity should be graded using the National Cancer Institute's Common Terminology Criteria for Adverse Events (NCI CTCAE), Version 4.03.
An overview of AEs provide a tabulation, by cohort and overall, of the incidence of all AEs, TEAEs, treatment-related AEs, Grade 3 and higher AEs, SAEs, treatment-related SAEs, deaths, and AEs leading to study treatment discontinuation. AEs are defined as treatment emergent if they are newly occurring or worsen following study treatment.
AEs are listed and summarized by Medical Dictionary for Regulatory Activities (MedDRA), preferred term, severity, and relationship to study drug. In the event of multiple occurrences of the same AE with the same preferred term in 1 patient, the AE are counted once as the occurrence. The incidence of AEs are tabulated by preferred term and cohorts. AEs leading to premature discontinuation of study drug are summarized and listed in the same manner.
as §1

[7] = tested on: cisplatin-ineligible patients with T2 T4N0M0 MIBC; details: cited from earlier work
[8] = EFS by investigator assessment, EV Mono N = 22
[9] = Present study, cisplatin ineligible, EV monotherapy x 3 cycles, sample size 22
[10] = by investigator assessment, N = 22
[11] = 2 cycles of 1200 mg prior to RC, 69 patients
[12] = 2 cycles of 1200 mg prior to RC

Substance: enfortumab vedotin
- severe cutaneous adverse reaction reports: SDRIFE ([1]; 15 patients): 2 cases
- severe cutaneous adverse reaction reports: Stevens-Johnson Syndrome (SJS) ([1]; 15 patients): 5 cases
- severe cutaneous adverse reaction reports: blister ([1]; 15 patients): 3 cases
- severe cutaneous adverse reaction reports: dermatitis bullous ([1]; 15 patients): 3 cases
- severe cutaneous adverse reaction reports: dermatitis exfoliative ([1]; 15 patients): 1 case
- severe cutaneous adverse reaction reports: epidermal necrosis ([1]; 15 patients): 1 case
- severe cutaneous adverse reaction reports: exfoliative rash ([1]; 15 patients): 1 case
- severe cutaneous adverse reaction reports: oropharyngeal blistering ([1]; 15 patients): 1 case
- severe cutaneous adverse reaction reports: stomatitis ([1]; 15 patients): 1 case
- severe cutaneous adverse reaction reports: toxic epidermal necrolysis (TEN) ([1]; 15 patients): 1 case
- patients with reports of severe cutaneous adverse reactions ([1]; some had fatal outcomes, predominantly during the first cycle): 15 patients
- SAE of severe cutaneous adverse reaction: SJS ([2]; 749 subjects): 0.1%
- SAE of severe cutaneous adverse reaction: blister ([2]; 749 subjects): 0.1%
- SAE of severe cutaneous adverse reaction: conjunctivitis ([2]; 749 subjects): 0.1%
- SAE of severe cutaneous adverse reaction: dermatitis bullous ([2]; 749 subjects): 0.4%
- SAE of severe cutaneous adverse reaction: drug eruption ([2]; 749 subjects): 0.4%
- SAE of severe cutaneous adverse reaction: stomatitis ([2]; 749 subjects): 0.1%
- SAE of severe cutaneous adverse reaction: toxic skin eruption ([2]; 749 subjects): 0.1%
- SAEs of severe cutaneous adverse reactions ([2]; 749 subjects): 1.5%
- SAEs of severe cutaneous adverse reactions ([2]; of 749 subjects, EV monotherapy studies of urothelial carcinoma): 11 subjects

Substance: pembrolizumab
- pCR rate ([3]; 3 cycles of 200 mg before RC, among 50 treated patients): 42%
- pCR rate in patients with PD L1 positive disease ([3]; 3 cycles of 200 mg before RC): 54.3%
- pathologic downstaging rate ([3]; 3 cycles of 200 mg before RC): 65.7%
- safety of neoadjuvant administration ([3]; 3 cycles of 200 mg before RC): safely administered
- pDS (non-muscle invasive disease at surgery), includes pCR ([3]; PURE-01, Pembrolizumab x 3, sample size 50): 54% (includes
- PCR (no viable tumor at surgery) ([3]; PURE-01, cisplatin eligible (n = 42) and ineligible (n = 8), Pembrolizumab x 3, sample size 50): 42%

Substance: CT-011
- response in treating acute myeloid leukemia (AML) at relapse [4]: failed to show response

Substance: enfortumab vedotin [EV Mono]
- pathological complete response (pCR), patients ([5]; 3 cycles neoadjuvant EV 1.25 mg/kg Days 1 and 8 of 3-week cycle, preliminary analysis of 22 patients): 36%
- Number of subjects who have recurrence or died [5, 8]: 5
- Subjects who have recurrence or died, figure in parentheses (share of N = 22) [5, 8]: (22.7)
- PCR (no viable tumor at surgery), ypT0 and ypTis [5, 9]: 45.5% (ypT0
- PCR (no viable tumor at surgery), ypT0 only [5, 9]: 32% (ypT0
- pDS (non-muscle invasive disease at surgery), includes pCR [5, 9]: 50% (includes
- EFS Rate at 6 months [5, 10]: 88.2%
- Event free-survival (EFS), 25th percentile [5, 10]: 6.7, — months
- Event free-survival (EFS), median [5, 10]: not reached
- Event free-survival (EFS), observed min [5, 10]: 2.60 months
- Event free-survival (EFS), observed max ([5]; by investigator assessment, N = 22, + printed after value): ≥ 12.32 months
- EFS Rate at 12 months ([5]; by investigator assessment, N = 22, one subject censored at study day 190 due to a data issue): 60.5%
- pCRR compared with rates seen with chemotherapy in cisplatin-eligible MIUC patients ([5]; cisplatin-ineligible MIBC patients, neoadjuvant EV): compares favorably
- AECI Any infusion related reactions, ≥Grade 3 ([6]; EV Mono N = 22): 0 n
- AECI Any ocular disorder: Blurred vision, ≥Grade 3 ([6]; EV Mono N = 22): 0 n
- AECI Any ocular disorder: Corneal disorders, Any Grade ([6]; EV Mono N = 22): 0 n
- AECI Any ocular disorder: Corneal disorders, ≥Grade 3 ([6]; EV Mono N = 22): 0 n
- AECI Any ocular disorder: Dry eye, ≥Grade 3 ([6]; EV Mono N = 22): 0 n
- AECI Any peripheral neuropathy, ≥Grade 3 ([6]; EV Mono N = 22): 0 n
- Any TEAEs leading to bladder surgery not performed ([6]; EV Mono N = 22): 0 n
- EV-related TEAEs leading to bladder surgery not performed ([6]; EV Mono N = 22): 0 n
- EV-related TEAEs leading to death ([6]; EV Mono N = 22): 0 n
- RC-related TEAEs leading to death ([6]; EV Mono N = 22): 0 n
- TEAE (Table 27) Hyperglycaemia ([6]; EV Mono N = 22, listed as EV): 13.6%
- TEAE (Table 27) Small intestinal obstruction ([6]; EV Mono N = 22, listed as EV): 9.1%
- TEAE (Table 27) Urinary tract infection ([6]; EV Mono N = 22, listed as EV): 9.1%
- patients with Grade 3 or higher TEAEs ([6]; EV monotherapy and RC+PLND): 59.1%
- tolerability of 3 cycles of neoadjuvant treatment ([6]; cisplatin-ineligible MIBC patients): well-tolerated
- Grade 5 AE Acute Kidney Injury: Days from RC + PLND ([6]; in vivo): 62 days
- Grade 5 AE Acute Kidney Injury: Days from last dose of EV ([6]; in vivo): 142 days
- Grade 5 AE Cardiac Arrest: Days from RC + PLND ([6]; in vivo): 15 days
- Grade 5 AE Cardiac Arrest: Days from last dose of EV ([6]; in vivo): 45 days
- Grade 5 AE Saddle PE: Days from RC + PLND ([6]; in vivo): 55 days
- Grade 5 AE Saddle PE: Days from last dose of EV ([6]; in vivo): 127 days
- patients whose grade 5 AEs occurred >30 days after the end of study treatment ([6]; in vivo): 2 pts
- patients with grade 5 adverse events while on the study ([6]; in vivo): 3 patients
- observed safety profile of neoadjuvant EV monotherapy ([6]; patients in this study): consistent with the known safety profile of EV
- Rash maculo-papular leading to EV discontinuation: AE onset after last EV dose ([6]; subject completed Cycle 2, Gr3): ^cSubject completed Cycle 2. AE onset occurred 4 days after last EV dose. (Gr3)

Substance: atezolizumab
- pCR, patients [7, 11]: 29%
- safety findings [7, 11]: no significant safety findings
- pCR, PD-L1-negative cohort [7, 12]: 16%
- pCR, patients with PD-L1-positive disease [7, 12]: 40%
- patients down staged to non-muscle invasive disease [7, 12]: 39%
- PCR (no viable tumor at surgery), ypT0 + ypTis ([7]; ABACUS, cisplatin ineligible, Atezolizumab x 2, sample size 88): 31% (ypT0 +
